Laboratory results: the supplement of paper PMC10065799, “High-throughput profiling of sequence recognition by tyrosine kinases and SH2 domains using bacterial peptide display” (eLife, 2023)

What follows are sequences tested against FGFR3 (UniProt P22607) (assay: phosphorylation enrichment, bacterial display (enrichment ratio); higher = better substrate or ligand; peptides without Tyr show the background).
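Further: 11-residue human phosphosite peptides and single-mutation variants displayed on the E. coli surface, counted by deep sequencing, each peptide's frequency after selection divided by its frequency in the unselected input library; frequency after pTyr selection over input frequency; kinase dosed for 20-30% of maximal phosphorylation in three min.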

Chain of FGFR3 (P22607 whole entry, looked up): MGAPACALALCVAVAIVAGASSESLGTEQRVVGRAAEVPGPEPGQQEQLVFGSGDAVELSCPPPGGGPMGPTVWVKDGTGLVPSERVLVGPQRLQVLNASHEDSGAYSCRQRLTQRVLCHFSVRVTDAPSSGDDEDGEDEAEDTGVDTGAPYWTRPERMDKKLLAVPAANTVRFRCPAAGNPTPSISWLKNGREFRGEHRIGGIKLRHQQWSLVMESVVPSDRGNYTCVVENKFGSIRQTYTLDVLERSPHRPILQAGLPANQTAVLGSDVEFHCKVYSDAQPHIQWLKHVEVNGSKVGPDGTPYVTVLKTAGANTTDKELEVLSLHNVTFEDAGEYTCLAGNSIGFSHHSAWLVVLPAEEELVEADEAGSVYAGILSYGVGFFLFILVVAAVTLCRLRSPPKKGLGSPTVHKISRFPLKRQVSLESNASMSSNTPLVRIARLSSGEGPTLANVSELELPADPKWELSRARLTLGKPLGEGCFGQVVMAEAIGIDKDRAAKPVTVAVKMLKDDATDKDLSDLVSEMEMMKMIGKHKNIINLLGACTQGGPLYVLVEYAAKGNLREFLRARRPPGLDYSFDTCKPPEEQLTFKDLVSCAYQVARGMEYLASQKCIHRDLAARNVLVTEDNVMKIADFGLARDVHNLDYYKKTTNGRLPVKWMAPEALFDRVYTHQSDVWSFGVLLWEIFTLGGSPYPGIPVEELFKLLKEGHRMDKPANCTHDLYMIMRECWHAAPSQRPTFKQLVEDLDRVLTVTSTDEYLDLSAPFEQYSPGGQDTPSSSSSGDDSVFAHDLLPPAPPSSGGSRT

Sequence | phosphorylation enrichment
VIKDKYPKVRY [APTX_Y209_A212V] | 0.449
CPPEVYAIMRG [NTRK1_Y757] | 0.765
GLRQSYFVEAQ [APCS_Y142_G141S] | 0.697
YPKARYHWLVL [APTX_Y214] | 0.67
LVFIKYLPEWT [PSEN1_Y240] | 1.27
PESIMYPKFTT [NTRK3_Y744_R745P] | 0.794
DASENYFVTDS [TMEM240_Y77] | 1.44
VVLEDYLDIKH [CLCNKB_Y138_N143H] | 1.05
SLTGAYTSGIP [POM121C_Y378] | 0.408
LKRCQYVTKKV [ALDOA_Y204_E207K] | 0.548
LEQRPYRRESE [KCNJ12_Y427] | 0.666
AGEGTYALDSE [PES1_Y265] | 0.643
QITQVYGFFDE [PPP2CA_Y127_YF] | 1.08
KRIKLYNQEND [RPGRIP1L_Y448] | 0.459
LLPNAYIYVVQ [L1CAM_Y418_A415P] | 1.5
DRVALYVAREG [AACS_Y117_I118V] | 0.705
FDDIAYIRKTL [PIK3CA_Y1021] | 0.496
NNVEQYQAMVT [TPR_Y965_S960N] | 0.721
PSQRPYVFFFS [PTEN_Y174_R173P_YF] | 1.14
CTAIHYNYMCN [TP53_Y234_T231A] | 0.581
QLPATCMNLGP [MST1R_Y1360_Y1360C] | 0.913
EVNQDYGLDPK [FH_Y110] | 0.837
AIFRRYSKFFD [SH3PXD2B_Y45_YF] | 0.587
WAKPEYTGGFK | 0.462
EYITRYIASLK [PSMA7_Y110] | 0.415
EKGSNYCLCRT [ASIC2_Y357_D354G] | 0.497
RLLVVYPWPQR [HBG2_Y36_T39P] | 0.703
AAESTYDKILK [GDNF_Y156_T154S] | 0.586
RRGMPYGGRGD [TGM1_Y312] | 0.904

Each sequence was assayed against Fyn (UniProt P06241) in the same assay as above.
Chain of Fyn (P06241 whole entry, looked up): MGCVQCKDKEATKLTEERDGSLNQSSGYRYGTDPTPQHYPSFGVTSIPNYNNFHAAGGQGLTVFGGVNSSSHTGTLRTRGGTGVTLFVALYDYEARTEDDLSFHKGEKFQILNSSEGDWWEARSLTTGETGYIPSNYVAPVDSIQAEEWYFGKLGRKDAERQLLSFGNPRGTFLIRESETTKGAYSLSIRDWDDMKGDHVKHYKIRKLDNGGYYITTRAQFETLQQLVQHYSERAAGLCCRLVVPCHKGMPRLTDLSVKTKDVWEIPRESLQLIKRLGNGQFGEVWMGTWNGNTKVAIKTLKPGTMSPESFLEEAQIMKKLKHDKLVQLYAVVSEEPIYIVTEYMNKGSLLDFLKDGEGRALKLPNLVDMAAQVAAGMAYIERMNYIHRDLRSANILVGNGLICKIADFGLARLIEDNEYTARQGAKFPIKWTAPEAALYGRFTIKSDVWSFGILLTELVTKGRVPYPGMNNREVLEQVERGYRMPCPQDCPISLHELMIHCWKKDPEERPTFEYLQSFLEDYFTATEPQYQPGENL

Sequence | phosphorylation enrichment
VIKDKYPKVRY [APTX_Y209_A212V] | 0.365
CPPEVYAIMRG [NTRK1_Y757] | 1.25
GLRQSYFVEAQ [APCS_Y142_G141S] | 0.457
YPKARYHWLVL [APTX_Y214] | 0.429
LVFIKYLPEWT [PSEN1_Y240] | 0.361
PESIMYPKFTT [NTRK3_Y744_R745P] | 0.707
DASENYFVTDS [TMEM240_Y77] | 0.444
VVLEDYLDIKH [CLCNKB_Y138_N143H] | 0.419
SLTGAYTSGIP [POM121C_Y378] | 0.376
LKRCQYVTKKV [ALDOA_Y204_E207K] | 0.806
LEQRPYRRESE [KCNJ12_Y427] | 0.91
AGEGTYALDSE [PES1_Y265] | 0.984
QITQVYGFFDE [PPP2CA_Y127_YF] | 14.9
KRIKLYNQEND [RPGRIP1L_Y448] | 0.377
LLPNAYIYVVQ [L1CAM_Y418_A415P] | 1.05
DRVALYVAREG [AACS_Y117_I118V] | 0.467
FDDIAYIRKTL [PIK3CA_Y1021] | 0.514
NNVEQYQAMVT [TPR_Y965_S960N] | 0.542
PSQRPYVFFFS [PTEN_Y174_R173P_YF] | 0.605
CTAIHYNYMCN [TP53_Y234_T231A] | 0.386
QLPATCMNLGP [MST1R_Y1360_Y1360C] | 0.817
EVNQDYGLDPK [FH_Y110] | 0.604
AIFRRYSKFFD [SH3PXD2B_Y45_YF] | 0.582
WAKPEYTGGFK | 0.411
EYITRYIASLK [PSMA7_Y110] | 0.416
EKGSNYCLCRT [ASIC2_Y357_D354G] | 0.504
RLLVVYPWPQR [HBG2_Y36_T39P] | 0.489
AAESTYDKILK [GDNF_Y156_T154S] | 0.76
RRGMPYGGRGD [TGM1_Y312] | 0.749

The sequences below were run against FGFR1 (UniProt P11362) in the same assay as above.
Chain of FGFR1 (P11362 whole entry, looked up): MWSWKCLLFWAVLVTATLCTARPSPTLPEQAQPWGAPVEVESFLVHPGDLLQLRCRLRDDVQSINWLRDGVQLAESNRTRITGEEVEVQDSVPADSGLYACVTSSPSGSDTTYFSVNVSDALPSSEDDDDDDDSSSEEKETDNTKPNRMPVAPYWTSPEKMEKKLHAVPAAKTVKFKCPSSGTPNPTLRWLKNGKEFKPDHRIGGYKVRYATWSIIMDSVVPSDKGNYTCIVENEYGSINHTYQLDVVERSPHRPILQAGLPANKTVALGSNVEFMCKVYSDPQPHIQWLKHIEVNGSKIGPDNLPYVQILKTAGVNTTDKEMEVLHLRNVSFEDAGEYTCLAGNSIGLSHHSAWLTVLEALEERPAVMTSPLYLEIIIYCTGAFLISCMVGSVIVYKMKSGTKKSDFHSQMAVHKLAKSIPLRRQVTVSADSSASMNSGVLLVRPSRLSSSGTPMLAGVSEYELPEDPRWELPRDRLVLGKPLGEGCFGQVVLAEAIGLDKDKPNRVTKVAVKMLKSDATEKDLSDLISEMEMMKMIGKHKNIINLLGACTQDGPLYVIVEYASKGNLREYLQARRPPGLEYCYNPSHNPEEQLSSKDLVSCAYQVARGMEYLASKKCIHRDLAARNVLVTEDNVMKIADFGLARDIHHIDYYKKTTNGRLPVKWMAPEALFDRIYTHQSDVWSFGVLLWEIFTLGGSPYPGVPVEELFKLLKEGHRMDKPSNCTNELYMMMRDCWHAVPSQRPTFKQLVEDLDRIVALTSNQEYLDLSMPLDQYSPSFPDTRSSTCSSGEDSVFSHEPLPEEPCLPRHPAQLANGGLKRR

Sequence | phosphorylation enrichment
VIKDKYPKVRY [APTX_Y209_A212V] | 0.441
CPPEVYAIMRG [NTRK1_Y757] | 0.455
GLRQSYFVEAQ [APCS_Y142_G141S] | 0.612
YPKARYHWLVL [APTX_Y214] | 0.582
LVFIKYLPEWT [PSEN1_Y240] | 0.615
PESIMYPKFTT [NTRK3_Y744_R745P] | 0.656
DASENYFVTDS [TMEM240_Y77] | 1.35
VVLEDYLDIKH [CLCNKB_Y138_N143H] | 1.24
SLTGAYTSGIP [POM121C_Y378] | 0.494
LKRCQYVTKKV [ALDOA_Y204_E207K] | 0.807
LEQRPYRRESE [KCNJ12_Y427] | 0.333
AGEGTYALDSE [PES1_Y265] | 0.484
QITQVYGFFDE [PPP2CA_Y127_YF] | 0.836
KRIKLYNQEND [RPGRIP1L_Y448] | 0.412
LLPNAYIYVVQ [L1CAM_Y418_A415P] | 1.34
DRVALYVAREG [AACS_Y117_I118V] | 0.503
FDDIAYIRKTL [PIK3CA_Y1021] | 0.456
NNVEQYQAMVT [TPR_Y965_S960N] | 0.581
PSQRPYVFFFS [PTEN_Y174_R173P_YF] | 2.12
CTAIHYNYMCN [TP53_Y234_T231A] | 0.479
QLPATCMNLGP [MST1R_Y1360_Y1360C] | 0.615
EVNQDYGLDPK [FH_Y110] | 0.572
AIFRRYSKFFD [SH3PXD2B_Y45_YF] | 0.598
WAKPEYTGGFK | 0.48
EYITRYIASLK [PSMA7_Y110] | 0.456
EKGSNYCLCRT [ASIC2_Y357_D354G] | 0.469
RLLVVYPWPQR [HBG2_Y36_T39P] | 0.527
AAESTYDKILK [GDNF_Y156_T154S] | 0.391
RRGMPYGGRGD [TGM1_Y312] | 0.686

The sequences below were run against MERTK (UniProt Q12866) in the same assay as above.
Chain of MERTK (Q12866 whole entry, looked up): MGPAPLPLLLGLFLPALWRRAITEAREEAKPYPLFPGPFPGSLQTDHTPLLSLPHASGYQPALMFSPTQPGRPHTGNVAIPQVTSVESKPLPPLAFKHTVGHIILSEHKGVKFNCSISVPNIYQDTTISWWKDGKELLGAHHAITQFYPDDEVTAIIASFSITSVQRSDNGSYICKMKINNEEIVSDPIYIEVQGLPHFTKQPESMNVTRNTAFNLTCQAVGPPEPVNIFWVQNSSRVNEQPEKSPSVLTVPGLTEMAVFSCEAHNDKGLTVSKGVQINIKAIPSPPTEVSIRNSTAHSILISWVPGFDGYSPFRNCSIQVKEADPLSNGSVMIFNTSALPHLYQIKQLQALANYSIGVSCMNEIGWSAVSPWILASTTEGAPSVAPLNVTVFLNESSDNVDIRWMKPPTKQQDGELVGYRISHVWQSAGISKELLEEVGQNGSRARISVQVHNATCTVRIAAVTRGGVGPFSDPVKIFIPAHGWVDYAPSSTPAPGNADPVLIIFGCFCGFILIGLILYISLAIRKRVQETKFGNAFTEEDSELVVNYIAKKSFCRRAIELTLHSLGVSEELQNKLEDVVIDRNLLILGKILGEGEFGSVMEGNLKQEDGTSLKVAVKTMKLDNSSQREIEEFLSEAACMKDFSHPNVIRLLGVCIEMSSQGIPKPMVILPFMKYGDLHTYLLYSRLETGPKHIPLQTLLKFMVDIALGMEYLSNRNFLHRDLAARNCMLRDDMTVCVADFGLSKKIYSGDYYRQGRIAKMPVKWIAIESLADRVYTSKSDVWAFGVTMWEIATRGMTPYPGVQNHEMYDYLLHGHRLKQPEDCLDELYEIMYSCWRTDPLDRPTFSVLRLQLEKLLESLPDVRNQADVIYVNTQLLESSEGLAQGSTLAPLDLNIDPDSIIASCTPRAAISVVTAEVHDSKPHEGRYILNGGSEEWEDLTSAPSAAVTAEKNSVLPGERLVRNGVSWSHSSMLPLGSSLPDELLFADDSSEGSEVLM

Sequence | phosphorylation enrichment
VIKDKYPKVRY [APTX_Y209_A212V] | 0.35
CPPEVYAIMRG [NTRK1_Y757] | 1.16
GLRQSYFVEAQ [APCS_Y142_G141S] | 0.543
YPKARYHWLVL [APTX_Y214] | 0.482
LVFIKYLPEWT [PSEN1_Y240] | 0.769
PESIMYPKFTT [NTRK3_Y744_R745P] | 0.579
DASENYFVTDS [TMEM240_Y77] | 0.516
VVLEDYLDIKH [CLCNKB_Y138_N143H] | 0.506
SLTGAYTSGIP [POM121C_Y378] | 0.349
LKRCQYVTKKV [ALDOA_Y204_E207K] | 0.535
LEQRPYRRESE [KCNJ12_Y427] | 0.618
AGEGTYALDSE [PES1_Y265] | 0.434
QITQVYGFFDE [PPP2CA_Y127_YF] | 2.32
KRIKLYNQEND [RPGRIP1L_Y448] | 0.439
LLPNAYIYVVQ [L1CAM_Y418_A415P] | 1.01
DRVALYVAREG [AACS_Y117_I118V] | 0.291
FDDIAYIRKTL [PIK3CA_Y1021] | 0.474
NNVEQYQAMVT [TPR_Y965_S960N] | 0.523
PSQRPYVFFFS [PTEN_Y174_R173P_YF] | 0.755
CTAIHYNYMCN [TP53_Y234_T231A] | 0.398
QLPATCMNLGP [MST1R_Y1360_Y1360C] | 0.533
EVNQDYGLDPK [FH_Y110] | 0.443
AIFRRYSKFFD [SH3PXD2B_Y45_YF] | 0.572
WAKPEYTGGFK | 0.397
EYITRYIASLK [PSMA7_Y110] | 0.499
EKGSNYCLCRT [ASIC2_Y357_D354G] | 0.458
RLLVVYPWPQR [HBG2_Y36_T39P] | 0.917
AAESTYDKILK [GDNF_Y156_T154S] | 0.401
RRGMPYGGRGD [TGM1_Y312] | 0.871
